What all share (assay): ITC
On the technique in general: In ITC the heat of successive injections is recorded.

The target in test [1] is T1, InvF (tag-free, purified) (S. Typhimurium, UniProt P69343 1-216).
T1 chain: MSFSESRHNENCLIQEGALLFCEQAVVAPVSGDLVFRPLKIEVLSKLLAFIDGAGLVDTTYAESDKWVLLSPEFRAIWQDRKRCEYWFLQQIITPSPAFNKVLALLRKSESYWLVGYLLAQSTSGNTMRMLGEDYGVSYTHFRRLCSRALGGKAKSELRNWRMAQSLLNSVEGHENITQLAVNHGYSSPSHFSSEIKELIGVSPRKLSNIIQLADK

For test [2], the target named is T2, SipC (tag-free, purified) (S. Typhimurium, UniProt P0CL47 1-409).
T2 chain: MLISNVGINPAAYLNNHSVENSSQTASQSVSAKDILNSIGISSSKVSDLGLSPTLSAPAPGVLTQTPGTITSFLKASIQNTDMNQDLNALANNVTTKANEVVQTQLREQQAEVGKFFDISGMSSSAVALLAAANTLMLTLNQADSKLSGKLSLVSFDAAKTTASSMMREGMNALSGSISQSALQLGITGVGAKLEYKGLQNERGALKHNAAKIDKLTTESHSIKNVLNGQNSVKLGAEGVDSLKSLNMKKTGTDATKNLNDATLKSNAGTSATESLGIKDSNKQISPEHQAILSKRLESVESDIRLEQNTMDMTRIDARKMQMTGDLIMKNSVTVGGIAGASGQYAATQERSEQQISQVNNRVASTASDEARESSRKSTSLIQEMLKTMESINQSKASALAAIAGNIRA

In test [3] the target is T3, SipB (tag-free, purified) (S. Typhimurium, UniProt Q56019 1-593).
T3 chain: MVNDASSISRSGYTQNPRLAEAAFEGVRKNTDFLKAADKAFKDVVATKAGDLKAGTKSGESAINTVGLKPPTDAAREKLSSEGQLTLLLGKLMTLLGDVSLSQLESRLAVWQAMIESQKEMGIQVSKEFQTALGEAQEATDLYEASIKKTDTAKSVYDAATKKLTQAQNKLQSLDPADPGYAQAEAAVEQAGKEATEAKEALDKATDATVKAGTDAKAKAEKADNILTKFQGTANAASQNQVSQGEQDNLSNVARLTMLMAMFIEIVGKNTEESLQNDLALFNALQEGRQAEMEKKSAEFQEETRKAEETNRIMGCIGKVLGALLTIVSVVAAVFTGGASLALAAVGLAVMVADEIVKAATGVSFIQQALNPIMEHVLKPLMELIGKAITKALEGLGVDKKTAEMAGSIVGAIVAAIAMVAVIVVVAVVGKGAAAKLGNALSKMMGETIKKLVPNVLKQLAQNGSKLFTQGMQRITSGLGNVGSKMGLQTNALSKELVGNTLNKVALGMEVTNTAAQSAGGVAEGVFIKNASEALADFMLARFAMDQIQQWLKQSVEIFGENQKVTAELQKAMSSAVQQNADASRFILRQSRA

The source of these data is PMC9637222 (2022).

B1: SicA (tag-free, purified) (natural protein)
chain: MDYQNNVSEERVAEMIWDAVSEGATLKDVHGIPQDMMDGLYAHAYEFYNQGRLDEAETFFRFLCIYDFYNPDYTMGLAAVCQLKKQFQKACDLYAVAFTLLKNDYRPVFFTGQCQLLMRKAAKARQCFELVNERTEDESLRAKALVYLEALKTAETEQHSEQEKE
By Kd is commonly meant the free concentration of one partner at which half of the binding sites on the other are occupied at equilibrium, for simple one-to-one binding. For B1, the Kd in test [1] stood at 460 nM; in test [2], 610 nM; in test [3] it was 530 nM.
